# In patent US20260199504A1 (JIANGSU HENGRUI PHARMACEUTICALS, published 2026):
# T1: human Nectin-4 on Nectin4-CHOK1 cells (CHO-K1 cell strain highly expressing Nectin-4) (human, UniProt Q96NY8 32-510)
# T1 construct: also called Nectin4-CHOK1 clone 3
# T1 sequence: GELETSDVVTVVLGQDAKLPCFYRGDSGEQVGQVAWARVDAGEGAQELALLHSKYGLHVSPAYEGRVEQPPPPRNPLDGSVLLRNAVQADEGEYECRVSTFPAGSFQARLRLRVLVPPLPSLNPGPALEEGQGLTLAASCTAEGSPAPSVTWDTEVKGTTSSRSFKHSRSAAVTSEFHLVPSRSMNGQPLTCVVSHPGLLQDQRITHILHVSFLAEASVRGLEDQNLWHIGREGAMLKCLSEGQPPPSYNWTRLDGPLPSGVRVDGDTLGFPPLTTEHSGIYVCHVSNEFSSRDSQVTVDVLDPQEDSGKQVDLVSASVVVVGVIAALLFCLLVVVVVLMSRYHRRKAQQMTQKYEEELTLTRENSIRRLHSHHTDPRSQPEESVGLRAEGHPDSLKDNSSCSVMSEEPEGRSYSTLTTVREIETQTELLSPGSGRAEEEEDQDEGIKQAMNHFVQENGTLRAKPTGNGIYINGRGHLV
# T2: human Nectin-4 His (Cat. #19771-H08H, Sino Biological) (human, UniProt Q96NY8 32-349)
# T2 construct: Bought soluble antigen; the construct is probably only a part of it; also called human Nectin-4 His antigen; not shown: His tag
# T2 sequence: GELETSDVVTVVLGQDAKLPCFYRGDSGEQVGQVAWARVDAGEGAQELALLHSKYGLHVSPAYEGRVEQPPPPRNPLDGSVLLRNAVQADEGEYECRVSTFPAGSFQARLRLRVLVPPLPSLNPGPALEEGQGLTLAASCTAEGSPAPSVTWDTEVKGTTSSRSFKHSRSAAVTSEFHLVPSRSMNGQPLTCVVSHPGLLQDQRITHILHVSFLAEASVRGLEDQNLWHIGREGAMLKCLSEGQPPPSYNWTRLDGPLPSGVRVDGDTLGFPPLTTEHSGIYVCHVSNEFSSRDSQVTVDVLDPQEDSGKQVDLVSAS
# T3: Nectin-4 expressed on T47D and MDA-MB-468 human breast cancer cells (human, UniProt Q96NY8 32-510)
# T3 construct: whole, on cells; Nectin-4 native to the cell lines; also called Nectin-4-expressing cells
# T3 sequence (looked up): T1 sequence
# B1: NEC49 (fully human-derived anti-Nectin-4 antibody) (antibody, V domains shown)
# VH: EVQLLESGGGLVQPGGSLRLSCAASGFTFSSYAMSWVRQAPGKGLEWVSAIYSGGSTYYADSVKGRFTISRDNSKNTLYLQMNSLRAEDTAVYYCTRHGGDSGSWSYYYYGMDVWGQGTTVTVSS
# VL: not shown
# notes: also called antibody NEC49
# B2: EV201 (positive control antibody; antibody of enfortumab vedotin) (antibody, human IgG1, kappa, V domains shown)
# VH: EVQLVESGGGLVQPGGSLRLSCAASGFTFSSYNMNWVRQAPGKGLEWVSYISSSSSTIYYADSVKGRFTISRDNAKNSLSLQMNSLRDEDTAVYYCARAYYYGMDVWGQGTTVTVSS
# VL: DIQMTQSPSSVSASVGDRVTITCRASQGISGWLAWYQQKPGKAPKFLIYAASTLQSGVPSRFSGSGSGTDFTLTISSLQPEDFATYYCQQANSFPPTFGGGTKVEIKR
# notes: also called control antibody EV201; control molecule
# Columns and labels:
# [1] = target: T1, human Nectin-4 on Nectin4-CHOK1 cells …; test: flow cytometry on Nectin4-CHOK1 cells
# Method: (§1) After centrifugation and removal of the supernatant, the test antibody that was diluted with the FACS buffer to different concentrations was added at 50 μL/well. The plate was incubated in the dark in a 4° C. refrigerator for 1 h. The plate was washed 3 times with FACS buffer by centrifugation at 500 g, and Alexa Fluor 488 Goat anti-Human IgG (H+L) (invitrogen, A-11013) was then added in a working concentration. The plate was incubated in the dark in a 4° C. refrigerator for 40 min. The plate was washed 3 times with FACS buffer by centrifugation at 500 g and tested on a BD FACSCantoII flow cytometer for geometric mean fluorescence intensity, and the EC₅₀ values for the binding of the antibodies to Nectin-4-expressing cells were calculated.
# [2] = target: T2, human Nectin-4 His (Cat. #19771-H08H, …); test: SPR, Biacore T200; antibody captured on Protein A chip, human Nectin-4 His as analyte; 1:1 Langmuir model
# Method: The anti-Nectin-4 antibody was analyzed by Biacore T200 (GE) for characteristic affinity and binding kinetics. A Protein A biosensor chip (Cat. #29127556, GE) was used to affinity-capture IgG antibodies, and then the human Nectin-4 His (Cat. #19771-H08H, Sino Biological) antigen that was diluted with HBS-EP buffer (pH 7.4) (Cat. #BR-1001-88, GE) to a series of concentrations was allowed to flow over the surface of the chip. The antigen-antibody binding kinetics was tracked for 3 min and the dissociation kinetics was tracked for 10 min. Reaction signals were detected in real time using a Biacore T200 instrument to obtain binding and dissociation curves. After dissociation was complete in each cycle, the biosensor chip was washed with 10 mM Gly-HCl pH 1.5 (Cat. #BR-1003-54, GE) for regeneration. The data obtained were analyzed with BIAevaluation software of GE using a 1:1 (Langmuir) binding model.
# [3] = target: T1, human Nectin-4 on Nectin4-CHOK1 cells …; test: cell-based or functional assay
# [4] = target: T3, Nectin-4 expressed on T47D and …; test: flow cytometry on T47D cells
# Method: as §1
# [5] = target: T3, Nectin-4 expressed on T47D and …; test: flow cytometry on MDA-MB-468 cells
# Method: as §1
binder,measurement,setting,value
B1,EC50,[1],0.78 nM
same,Kd,[2],5.15 nM
same,koff,[2],0.00189 s⁻¹
same,kon,[2],367000 M⁻¹ s⁻¹
same,"IC50 (nM) (DT3C antibody endocytosis assay, Nectin4-CHOK1 cells)",[3],0.43 nM
same,EC50,[4],0.07 nM
same,EC50,[5],0.06 nM
B2,EC50,[1],0.94 nM
same,Kd,[2],9.33 nM
same,koff,[2],0.00661 s⁻¹
same,kon,[2],709000 M⁻¹ s⁻¹
same,"IC50 (nM) (DT3C antibody endocytosis assay, Nectin4-CHOK1 cells)",[3],0.5 nM
same,EC50,[4],0.26 nM
same,EC50,[5],0.23 nM
